Experimental findings from publication PMC5663815, “Macrophage migration inhibitory factor (MIF) modulates trophic signaling through interaction with serine protease HTRA1” (Cellular and Molecular Life Sciences: CMLS, 2017) are described below.

The target of this test is T1, Recombinant human HTRA1 (R&D Systems, 2916-SE) (human, UniProt Q92743 23-480, RED-NHS dye label (Monolith NT Protein Labeling Kit RED-NHS), molar dye to protein ratio 5:1).
T1 construct: Serine protease HTRA1, human, recombinant, R&D Systems catalogue 2916-SE; In the functional rows the HTRA1 was full-length HTRA1 (pcDNA3) in medium of stably transfected HEK293 cells, not this bought protein; also called labeled HTRA1; source: bought: R&D Systems, 2916-SE
T1 sequence (Q92743 23-480): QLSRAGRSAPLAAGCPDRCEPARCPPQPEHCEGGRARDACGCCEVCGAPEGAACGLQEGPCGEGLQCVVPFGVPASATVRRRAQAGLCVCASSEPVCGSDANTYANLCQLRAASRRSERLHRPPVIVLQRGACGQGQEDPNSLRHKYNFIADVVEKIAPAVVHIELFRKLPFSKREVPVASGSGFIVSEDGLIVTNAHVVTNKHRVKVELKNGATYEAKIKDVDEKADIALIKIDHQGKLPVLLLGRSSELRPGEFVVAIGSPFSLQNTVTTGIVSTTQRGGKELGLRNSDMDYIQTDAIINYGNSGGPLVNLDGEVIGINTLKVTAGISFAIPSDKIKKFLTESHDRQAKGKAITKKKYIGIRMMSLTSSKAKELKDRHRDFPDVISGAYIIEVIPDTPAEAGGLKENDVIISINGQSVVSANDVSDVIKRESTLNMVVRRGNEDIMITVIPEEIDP
Put plainly: MST; labeled HTRA1 constant at 65 nM, unlabeled MIF titrated 2.28 nM to 1 µM; 50 mM Tris, 0.05% Tween-20, pH 8.0; 20 min at RT, 25 °C; Monolith NT.115, 40% LED, 80% MST power; Thermophoresis + T-jump signal. As to conditions: both partners purified.

B1: MIF (Pepro-Tech, 300-69) (natural protein, UniProt P14174 1-115, looked up)
chain: MPMFIVNTNVPRASVPDGFLSELTQQLAQATGKPPQYIAVHVVPDQLMAFGGSSEPCALCSLHSIGKIGGAQNRSYSKLLCGLLAERLRISPDRVYINYYDMNAANVGWNNSTFA
notes: also called unlabeled MIF; non-labeled MIF; source: bought: Pepro-Tech, 300-69
With B1, the Kd (usually the constant that tells how readily two partners part at equilibrium) turned out to be 147 nM.
